# Laboratory results as given in publication PMC2686699, “The interaction between the measles virus nucleoprotein and the Interferon Regulator Factor 3 relies on a specific cellular environment” (Virology Journal, 2009).
# B1: IRF-3 RD (regulatory domain of IRF-3, residues 175-427, N-terminal hexahistidine tag; IRF-3 RDHN) (domain or fragment, human, UniProt Q14653 175-427, looked up)
# chain: SLDNPTPFPNLGPSENPLKRLLVPGEEWEFEVTAFYRGRQVFQQTISCPEGLRLVGSEVGDRTLPGWPVTLPDPGMSLTDRGVMSYVRHVLSCLGGGLALWRAGQWLWAQRLGHCHTYWAVSEELLPNSGHGPDGEVPKDKEGGVFDLGPFIVDLITFTEGSGRSPRYALWFCVGESWPQDQPWTKRLVMVKVVPTCLRALVEMARVGGASSLENTVDLHISNSHPLSLTSDQYKAYLQDLVEGMDFQGPGES
# notes: Human IRF-3, regulatory domain, residues 175-427; Dimer or monomer according to the buffer (monomer in buffers C and D); Also made uniformly 15N-labelled for NMR; source: E. coli Rosetta [DE3], purified (Talon IMAC, Hi-Trap Q, Superdex 200); not shown: His6, N-terminal, kept
# Target: the molecule itself
# Assay: SEC-MALS; data not shown; purified IRF-3 RD in various buffers, including 10 mM sodium phosphate pH 7 or buffer A (50 mM sodium phosphate pH 8, 300 mM NaCl, 10 mM imidazole); the method is told only in general (SEC-MALS in various buffers)
protein,measurement,value
B1,stoichiometry N,2
